Where no end group is shown, it is not given here.
T1: human corticotrophin releasing hormone receptor type 2 (CRHR2) (human, UniProt Q13324 1-411)
T1 sequence (looked up): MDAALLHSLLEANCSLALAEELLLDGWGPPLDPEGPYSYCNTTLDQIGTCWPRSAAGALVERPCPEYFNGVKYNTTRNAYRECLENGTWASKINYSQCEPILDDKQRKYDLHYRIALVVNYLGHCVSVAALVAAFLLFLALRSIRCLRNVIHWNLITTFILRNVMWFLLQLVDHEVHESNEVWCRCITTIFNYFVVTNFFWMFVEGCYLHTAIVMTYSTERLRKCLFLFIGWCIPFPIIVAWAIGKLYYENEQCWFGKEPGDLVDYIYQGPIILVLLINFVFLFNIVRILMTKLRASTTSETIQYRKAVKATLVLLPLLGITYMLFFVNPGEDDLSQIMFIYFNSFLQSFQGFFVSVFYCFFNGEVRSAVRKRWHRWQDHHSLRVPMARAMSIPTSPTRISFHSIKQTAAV


Target: T1, human corticotrophin releasing hormone …
Test: cell-based or functional assay

Binder | Log DR | pA50
TKFTLSLDVPTNIMNLCFNIAKAKNLRAQAAANAHLMAQI (NES-PEG (about 20 kDa) on Cys 17; C-terminal amide (-NH2)) [Pegylated Cys-variant stresscopin-like peptide with NES linker and PEG about 20 kDa SEQ ID NO: 71] | ~2.26 log10 | ~7.35 -log10(M)
TKFTLSLDVPTNIMNLLCNIAKAKNLRAQAAANAHLMAQI (NES-PEG (about 20 kDa) on Cys 18; C-terminal amide (-NH2)) [Pegylated Cys-variant stresscopin-like peptide with NES linker and PEG about 20 kDa SEQ ID NO: 72] | 1.5 log10 | 8.04 -log10(M)
TKFTLSLDVPTNIMNLLFCIAKAKNLRAQAAANAHLMAQI (NES-PEG (about 20 kDa) on Cys 19; C-terminal amide (-NH2)) [Pegylated Cys-variant stresscopin-like peptide with NES linker and PEG about 20 kDa SEQ ID NO: 73] | 1.11 log10 | 8.29 -log10(M)
TKFTLSLDVPTNIMNLLFNIAKCKNLRAQAAANAHLMAQI-NH2 [Cys-variant stresscopin-like peptide SEQ ID NO: 24] | 0.74 log10 | 8.94 -log10(M)
TKFTLSLDVPTNIMNLLFNIAKAKNCRAQAAANAHLMAQI-NH2 [Cys-variant stresscopin-like peptide SEQ ID NO: 27] | 0.76 log10 | 8.76 -log10(M)
TKFTLSLDVPTNIMNLLFCIAKAKNLRAQAAANAHLMAQI-NH2 [Cys-variant stresscopin-like peptide SEQ ID NO: 20] | 0.52 log10 | 9 -log10(M)
TKFTLSLDVPTNIMNLLFNIAKAKCLRAQAAANAHLMAQI-NH2 [Cys-variant stresscopin-like peptide SEQ ID NO: 26] | 0.08 log10 | 9.44 -log10(M)
TKFTLSLDVPTNIMNLLFNIACAKNLRAQAAANAHLMAQI-NH2 [Cys-variant stresscopin-like peptide SEQ ID NO: 23] | 1.13 log10 | 8.55 -log10(M)
TKFTLSLDVPTNIMNLLCNIAKAKNLRAQAAANAHLMAQI-NH2 [Cys-variant stresscopin-like peptide SEQ ID NO: 19] | 1.67 log10 | 8.01 -log10(M)
TKFTLSLDVPTNIMNLLFNIAKACNLRAQAAANAHLMAQI-NH2 [Cys-variant stresscopin-like peptide SEQ ID NO: 25] | 0.35 log10 | 9.17 -log10(M)
TKFTLSLDVPTNIMNLLFNCAKAKNLRAQAAANAHLMAQI-NH2 [Cys-variant stresscopin-like peptide SEQ ID NO: 21] | 0.77 log10 | 8.75 -log10(M)
TKFTLSLDVPTNIMNLLFNIAKAKNLCAQAAANAHLMAQI-NH2 [Cys-variant stresscopin-like peptide SEQ ID NO: 28] | 1.61 log10 | 9.36 -log10(M)
TKFTLSLDVPTNIMNLLFNICKAKNLRAQAAANAHLMAQI-NH2 [Cys-variant stresscopin-like peptide SEQ ID NO: 22] | 0.52 log10 | 9.17 -log10(M)

Next, values leading:

Log DR | pA50 | Binder
2.7 log10 | 6.84 -log10(M) | TKFTLSLDVPTNIMNLLFNIACAKNLRAQAAANAHLMAQI (NES-PEG (about 20 kDa) on Cys 22; C-terminal amide (-NH2)) [Pegylated Cys-variant stresscopin-like peptide with NES linker and PEG about 20 kDa SEQ ID NO: 76]
1.11 log10 | 8.5 -log10(M) | TKFTLSLDVPTNIMNLLFNIAKAKCLRAQAAANAHLMAQI (NES-PEG (about 20 kDa) on Cys 25; C-terminal amide (-NH2)) [Pegylated Cys-variant stresscopin-like peptide with NES linker and PEG about 20 kDa SEQ ID NO: 79]
1.27 log10 | 8.27 -log10(M) | TKFTLSLDVPTNIMNLLFNIAKCKNLRAQAAANAHLMAQI (NES-PEG (about 20 kDa) on Cys 23; C-terminal amide (-NH2)) [Pegylated Cys-variant stresscopin-like peptide with NES linker and PEG about 20 kDa SEQ ID NO: 77]
~1.52 log10 | ~7.89 -log10(M) | TKFTLSLDVPTNIMNLLFNIAKACNLRAQAAANAHLMAQI (NES-PEG (about 20 kDa) on Cys 24; C-terminal amide (-NH2)) [Pegylated Cys-variant stresscopin-like peptide with NES linker and PEG about 20 kDa SEQ ID NO: 78]
1.75 log10 | 7.6 -log10(M) | TKFTLSLDVPTNIMNLLFNIAKAKNCRAQAAANAHLMAQI (NES-PEG (about 20 kDa) on Cys 26; C-terminal amide (-NH2)) [Pegylated Cys-variant stresscopin-like peptide with NES linker and PEG about 20 kDa SEQ ID NO: 80]
1.3 log10 | 8.24 -log10(M) | TKFTLSLDVPTNIMNLLFNICKAKNLRAQAAANAHLMAQI (NES-PEG (about 20 kDa) on Cys 21; C-terminal amide (-NH2)) [Pegylated Cys-variant stresscopin-like peptide with NES linker and PEG about 20 kDa SEQ ID NO: 75]
~2.28 log10 | ~7.33 -log10(M) | TKFTLSLDVPTNIMNLLFNCAKAKNLRAQAAANAHLMAQI (NES-PEG (about 20 kDa) on Cys 20; C-terminal amide (-NH2)) [Pegylated Cys-variant stresscopin-like peptide with NES linker and PEG about 20 kDa SEQ ID NO: 74]
